Reference: US20120316113A1, “FGF BASED FIBRIN BINDING PEPTIDES” (Baxter Healthcare S.A., priority 2011, published 2012)
Entries after “also recorded” stand apart in the source; their conditions may differ.

Assays:
[1] = molecular target: T1, fibrinogen (Homo sapiens, UniProt P02671+P02675+P02679); assay: Fibrinogen binding assay by ELISA; conditions: plate coated with 1 mg/ml fibrinogen, various concentrations, anti-His6-peroxidase detection
T1 sequence (P02671 20-629 limits assumed): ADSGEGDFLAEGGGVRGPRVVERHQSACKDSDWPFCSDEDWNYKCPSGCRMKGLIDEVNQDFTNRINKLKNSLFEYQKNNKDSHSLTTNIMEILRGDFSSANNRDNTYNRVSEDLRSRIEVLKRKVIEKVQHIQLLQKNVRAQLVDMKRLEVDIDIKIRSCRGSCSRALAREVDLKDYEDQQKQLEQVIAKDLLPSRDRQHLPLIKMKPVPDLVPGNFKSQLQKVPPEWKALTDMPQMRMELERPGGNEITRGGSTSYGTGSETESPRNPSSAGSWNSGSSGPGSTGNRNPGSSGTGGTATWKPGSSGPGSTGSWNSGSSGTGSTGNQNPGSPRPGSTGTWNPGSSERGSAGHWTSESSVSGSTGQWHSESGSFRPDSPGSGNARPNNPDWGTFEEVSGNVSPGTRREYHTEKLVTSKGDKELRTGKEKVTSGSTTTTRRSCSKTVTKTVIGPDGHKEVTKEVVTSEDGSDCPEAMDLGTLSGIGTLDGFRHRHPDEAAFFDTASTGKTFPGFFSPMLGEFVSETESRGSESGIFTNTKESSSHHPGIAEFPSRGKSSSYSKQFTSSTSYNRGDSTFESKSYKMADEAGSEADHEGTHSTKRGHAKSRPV
T1 sequence (P02675 31-491): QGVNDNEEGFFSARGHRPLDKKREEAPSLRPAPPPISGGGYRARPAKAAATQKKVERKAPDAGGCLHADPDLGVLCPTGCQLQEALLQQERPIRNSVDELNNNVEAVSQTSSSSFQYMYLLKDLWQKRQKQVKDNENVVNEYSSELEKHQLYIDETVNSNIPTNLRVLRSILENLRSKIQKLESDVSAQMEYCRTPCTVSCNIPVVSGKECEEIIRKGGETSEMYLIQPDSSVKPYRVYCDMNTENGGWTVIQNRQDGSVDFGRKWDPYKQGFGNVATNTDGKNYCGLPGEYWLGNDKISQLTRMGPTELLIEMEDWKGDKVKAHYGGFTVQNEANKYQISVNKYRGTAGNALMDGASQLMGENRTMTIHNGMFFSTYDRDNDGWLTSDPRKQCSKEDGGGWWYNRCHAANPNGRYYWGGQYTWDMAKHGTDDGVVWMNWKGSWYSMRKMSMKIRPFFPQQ
T1 sequence (P02679 27-433 limits assumed): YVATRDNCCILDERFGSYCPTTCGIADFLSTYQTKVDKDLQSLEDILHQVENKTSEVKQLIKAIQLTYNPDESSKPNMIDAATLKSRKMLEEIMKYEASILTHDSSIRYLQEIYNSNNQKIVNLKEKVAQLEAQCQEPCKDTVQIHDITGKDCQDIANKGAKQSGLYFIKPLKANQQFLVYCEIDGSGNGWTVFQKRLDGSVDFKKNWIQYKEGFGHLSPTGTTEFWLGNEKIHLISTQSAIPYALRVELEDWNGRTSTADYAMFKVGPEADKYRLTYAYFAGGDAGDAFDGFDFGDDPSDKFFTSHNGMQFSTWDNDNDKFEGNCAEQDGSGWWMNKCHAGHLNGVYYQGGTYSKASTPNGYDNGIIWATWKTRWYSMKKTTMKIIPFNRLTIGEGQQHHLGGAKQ
Protocol: (§1) A polystyrene 96-well plate (Nunc® Maxisorp EUSA-plates) was coated with 1 mg/ml fibrinogen (Tisseel®, Baxter AG, Vienna) overnight at 4° C. and then blocked with blocking solution (PBS+1% BSA) for 2 hours at room temperature CRT). After washing three times with PBS, purified peptides were added in various dilutions to the plate and incubated for 1 hour at RT. After the three times washing with PBS, a monoclonal anti-His6-peroxidase antibody (Sigma-Aldrich, Vienna), diluted in PBS+0.1% Tween (Sigma-Aldrich, Vienna) was added and incubated for 1 hour at RT. Finally, the plate was washed three times with PBS again and wells were incubated with o-phenylenediaminehydrochlorid substrate. Absorbance was measured at 492 nm and 620 nm. For fibrin binding analysis, the plate was first coated with fibrinogen overnight at 4° C. and then incubated with 10 I.U./ml thrombin (Tisseel, Baxter AG, Vienna) for 30 minutes at 37° C. The following procedure was the same as described above. For the surface plasmon resonance (SPR) method fibrinogen was coupled to a gold sensor chip (10% COOH—(PEG)6-C11—SH, 90% OH(PEG)3-C11—SH; Reichert Analytical, NY, USA) by amine chemistry using EDC (1-ethyl-3-[3-dimethylaminopropyl]carbodiimide hydrochloride) and NHS (N-hydroxysuccinimide) (Pierce, Ill., USA). Uncoupled sites on the gold sensor chip were blocked with 1 M ethanolamine pH 8.5 (Sigma-Aldrich, MO, USA). The purified recombinant proteins and peptides were passed over the chip's surface at a flow rate of 0.4 ml/min to 0.8 ml/min and allowed to interact. The signals were detected and recorded at the Reichert SR7000 Surface Plasmon Resonance Analytical Instrument (Reichert Analytical, NY, USA). After each measurement the sensor chip surface was regenerated by a pulse with 100 mM phosphoric acid (Mallinckrodt Chemicals, NJ, USA) after each application of the samples. Association and dissociation signals were fitted to one association curve using a prism software calculation program.
Purified, proteins and peptides in different concentrations were used for testing the binding affinity to fibrinogen and fibrin (FIG. 5).

[2] = molecular target: T1, fibrinogen; assay: Surface plasmon resonance (SPR) binding to fibrinogen coupled to gold sensor chip; conditions: for binding signal (SPR): fibrinogen on sensor chip, fitted association curves
Protocol: as §1

[3] = system: mouse myoblast cell line (C2C12); assay: Biological activity: viability (MTT) assay of mouse myoblast C2C12 cells; type: cell-based; conditions: for proliferative activity / cell growth effect: 48 hours, DMEM+1% FCS, MTT
Protocol: A moose myoblast cell line (C2C12; ECACC (Sigma-Aldrich, Vienna)) was grown in Dulbecco's Modified Eagle Medium (DMEM) with 10% fetal calf serum (FCS). At 50-60% confluence cells were trypsinized and transferred to a 24-well plate (1×10^4/well).
Following a 48-hour-culture period at 37° C., cells were washed with DMEM only and then covered with medium (DMEM+1% FCS) containing various concentrations of hFGF-2 or hFGF-2 peptides. After 48 hours number of viable cells was determined by adding 3-(4,5-dimethylthiazol-2-yl)-2,5-diphenyltetrazolium bromide (MTT, Sigma-Aldrich, Vienna) as previously described {M05}.

binding affinity to fibrinogen [1]	binding signal (SPR) [2]	binding affinity to fibrinogen ([1]; listed as Pep5)	Sequence	binding characteristics to fibrinogen (SPR) ([2]; compared to full-length recombinant hFGF-2)	proliferative activity / cell growth effect [3]	activity retained relative to the full length protein ([3]; relative to full length hFGF-2)
nearly no binding affinity	weak and short binding signals	little binding affinity	FERLESNNYN TYRSRHHHHH (FERLESNNYNTYRSRHHHHH; synthetic peptide pep 5 (20 aa), peptide #5, pep5 with C-terminus 5x HIS-tag)	–	did not stimulate C2C12 cell growth; also recorded: little biological activity	–
high affinity	weak and short binding signals	–	EDGRLLASKCVTDECFFFERLESNNYNTYRSRHHHHH (EDGRLLASKCVTDECFFFERLESNNYNTYRSRHHHHH; synthetic peptide pep 3 (37 aa), peptide #3, pep3 with C-terminus 5x HIS-tag) [also expressed recombinantly]	–	–	approximately 50%

Sequence	binding affinity to fibrinogen [1]	binding signal (SPR) [2]	binding affinity to fibrinogen ([1]; listed as Pep5)	binding characteristics to fibrinogen (SPR) ([2]; compared to full-length recombinant hFGF-2)	proliferative activity / cell growth effect [3]	activity retained relative to the full length protein ([3]; relative to full length hFGF-2)
KCVTDECFFFERLESNNYNTYRSRHHHHH (KCVTDECFFFERLESNNYNTYRSRHHHHH; synthetic peptide pep 4 (29 aa), peptide #4, pep4 with C-terminus 5x HIS-tag)	significantly lower binding	significantly lower compared to hFGF-2 but more consistently over a longer period of 300 seconds; also recorded: lower binding signals than that of hFGF-2	–	confirmed the binding affinity to fibrinogen	less activity, but similar to full length hFGF-2	–
